What is called IC50 is the midpoint of a concentration-inhibition curve. Higher therefore signals weaker potency.

For series [1], the target named is T1, VEGF165 (human, UniProt P15692 27-191).
T1 chain: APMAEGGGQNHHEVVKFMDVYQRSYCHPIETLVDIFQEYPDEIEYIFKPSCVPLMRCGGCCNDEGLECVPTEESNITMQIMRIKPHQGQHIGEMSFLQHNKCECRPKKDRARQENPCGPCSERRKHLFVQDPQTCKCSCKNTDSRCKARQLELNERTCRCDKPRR
Kind of series: competition ELISA (unbound VEGF); multivalent HyA conjugate.

In series [2] the target is T1, VEGF165. The experiment in a line: ELISA; multivalent CMC conjugate. For orientation: ELISA stands for enzyme-linked immunosorbent assay.
In series [3] the target is T2, mvsFlt 650 kDa LCR (multivalent sFlt-hyaluronic acid conjugate, low conjugation ratio), P17948.
T2 chain: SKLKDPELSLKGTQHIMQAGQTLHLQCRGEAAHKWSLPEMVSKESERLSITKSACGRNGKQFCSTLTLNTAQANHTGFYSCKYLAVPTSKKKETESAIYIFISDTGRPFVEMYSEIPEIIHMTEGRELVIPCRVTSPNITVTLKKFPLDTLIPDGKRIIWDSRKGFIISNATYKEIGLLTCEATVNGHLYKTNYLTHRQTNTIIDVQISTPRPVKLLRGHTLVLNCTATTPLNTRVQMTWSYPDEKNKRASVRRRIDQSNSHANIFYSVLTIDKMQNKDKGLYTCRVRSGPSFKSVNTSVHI

The target in series [4] is soluble fms-like tyrosine kinase-1 (sFlt), unconjugated (UniProt P17948). The experiment in a line: cell-based or functional assay.
In series [5] the target is T1, VEGF165. The experiment in a line: competition ELISA (unbound VEGF).
For series [6], the target named is T1, VEGF165. The experiment in a line: ELISA.
The target of series [7] is T3, VEGF165 (human, UniProt P15692-4 27-191). The experiment in a line: cell-based or functional assay.
In series [8] the target is T3, VEGF165. The experiment in a line: binding competition ELISA (VEGF165 Quantikine): free VEGF165 captured by the plate antibody. The method, then: The mvsFlt conjugates were analyzed using a VEGF₁₆₅ Quantikine Sandwich ELISA (R&D Systems) to examine the effect of HyA conjugation on sFlt inhibition of VEGF₁₆₅. The assay was carried out according to the manufacturer's instructions. Briefly, VEGF₁₆₅ was added to PBS with varying concentrations of sFlt or mysFlt. Free VEGF₁₆₅ that bound to the capture antibodies on the plate surface were detected using a horseradish peroxidase conjugated detection antibody and quantified using a spectrophotometer at 450 nm.

B1: conjugated multivalent VHH anti-VEGF antibody (28 VHH per 860 kDa hyaluronic acid) (other)
VHH: SNADVQLVESGGGLVQPGGSLRLSCAASGRTFSSYSMGWFRQAPGKEREFVVAISKGGYKYDAVSLEGRFTISRDNAKNTVYLQINSLRPEDTAVYYCASSRAYGSSRLRLADTYEYWGQGTLVTVSSSPSTPPTPSPSTPPGGCDDDDKHHHHHH
modifications: covalently conjugated to 860 kDa hyaluronic acid
In turn, B1 returned a 50% inhibitory concentration (IC50) in series [1] of 812 nM.

B2: anti-VEGF VHH-CMC conjugate (~17 VHH per ~700 kDa carboxymethylcellulose) (other)
VHH: B1 VHH
modifications: covalently conjugated to ~700 kDa carboxymethylcellulose
The molecule B2 gave an IC50 in series [2] of 8800 nM.

B3: matrix metalloproteinase-7 (MMP-7) (protein)
chain: YSLFPNSPKWTSKVVTYRIVSYTRDLPHITVDRLVSKALNMWGKEIPLHFRKVVWGTADIMIGFARGAHGDSYPFDGPGNTLAHAFAPGTGLGGDAHFDEDERWTDGSSLGINFLYAATHELGHSLGMGHSSDPNAVMYPTYGNGDPQNFKLSQDDIKGIQKLYGKRSNSRKK
Turning to B3, the results for the “protein remaining detectable after 12 h with MMP-7 at 1:1 molar ratio of MMP-7 to sFlt (SDS-PAGE, silver stain)” value in series [3] and in series [4] were 34.8±1.8% of mvsFlt and 6.8%, respectively. Further, the “protein remaining detectable after 12 h with MMP-7 at 1:4 molar ratio of MMP-7 to sFlt (SDS-PAGE, silver stain)” value in series [3] was “detectable mvsFlt at 74.8±4.9%”; in series [4], 34%.

B4: conjugated multivalent scFv anti-VEGF antibody (31 scFv per 860 kDa hyaluronic acid) (other)
scFv: MEIVMTQSPSTLSASVGDRVIITCQASEIIHSWLAWYQQKPGKAPKLLIYLASTLASGVPSRFSGSGSGAEFTLTISSLQPDDFATYYCQNVYLASTNGANFGQGTKLTVLGGGGGSGGGGSGGGGSGGGGSEVQLVESGGGLVQPGGSLRLSCTASGFSLTDYYYMTWVRQAPGKGLEWVGFIDPDDDPYYATWAKGRFTISRDNSKNTLYLQMNSLRAEDTAVYYCAGGDHNSGWGLDIWGQGTLVTVSSSPSTPPTPSPSTPPGGCDDDDKHHHHHH
modifications: covalently conjugated to 860 kDa hyaluronic acid
In series [1], B4 gave an IC50 of 47.7 nM.

B5: single-chain variable fragment (scFv) anti-VEGF antibody, unconjugated (scFv)
scFv: B4 scFv
In turn, B5 had a 50% inhibitory concentration (IC50) in series [5] of 89.8 nM.

B6: single-domain camelid (VHH) anti-VEGF antibody, unconjugated (VHH)
VHH: DVQLVESGGGLVQPGGSLRLSCAASGRTFSSYSMGWFRQAPGKEREFVVAISKGGYKYDAVSLEGRFTISRDNAKNTVYLQINSLRPEDTAVYYCASSRAYGSSRLRLADTYEYWGQGTLVTVSS
With B6, the half-maximal inhibitory concentration (IC50) in series [6] came out at 761 nM; in series [5], 758 nM.

B7: soluble fms-like tyrosine kinase-1 (sFlt), unconjugated (receptor, UniProt P17948 27-328, looked up)
chain: T2 chain
notes: domain: first 3 Ig-like extracellular domains; Expressed in High Five insect cells, about 50 kDa; also called recombinant sFlt; soluble Flt-1 receptor; not shown: tag implied by Ni-NTA purification, not described for the tested protein (the ex)
In the case of B7, in series [7], the “IC50, HUVEC Survival” value was 0.0393 µg/mL. In series [8], this molecule had a half-inhibitory concentration (IC50) of 0.0038 µg/mL.

B8: mvsFlt 650 kDa LCR (multivalent sFlt-hyaluronic acid conjugate, low conjugation ratio) (other, UniProt P17948 27-328, looked up)
chain: T2 chain
modifications: thiolated with 2-iminothiolane and linked through EMCH maleimide to 650 kDa hyaluronic acid
notes: domain: first 3 Ig-like extracellular domains; Protein-polymer conjugate; 10:1 sFlt:HyA feed ratio; final sFlt:HyA 5.3 by SEC-MALS; also called 650 kDa LCR mvsFlt; not shown: tag implied by Ni-NTA purification, not described
For the molecule B8, the “IC50, HUVEC Survival” value in series [7] came out at 0.0417 µg/mL. Also, in series [8], the IC50 turned out to be 0.0039 µg/mL.

B9: mvsFlt 300 kDa LCR (multivalent sFlt-hyaluronic acid conjugate, low conjugation ratio) (other, UniProt P17948 27-328, looked up)
chain: T2 chain
modifications: thiolated with 2-iminothiolane and linked through EMCH maleimide to 300 kDa hyaluronic acid
notes: domain: first 3 Ig-like extracellular domains; Protein-polymer conjugate; 10:1 sFlt:HyA feed ratio; final sFlt:HyA 7.9 by SEC-MALS; not shown: tag implied by Ni-NTA purification, not described
Regarding B9, in series [7], the “IC50, HUVEC Survival” value turned out to be 0.0469 µg/mL. In series [8], this molecule gave a half-maximal inhibitory concentration (IC50) of 0.0045 µg/mL.

B10: mvsFlt 650 kDa HCR (multivalent sFlt-hyaluronic acid conjugate, high conjugation ratio) (other, UniProt P17948 27-328, looked up)
chain: T2 chain
modifications: thiolated with 2-iminothiolane and linked through EMCH maleimide to 650 kDa hyaluronic acid
notes: domain: first 3 Ig-like extracellular domains; Protein-polymer conjugate; 30:1 sFlt:HyA feed ratio; final sFlt:HyA 17.1 by SEC-MALS; not shown: tag implied by Ni-NTA purification, not described
On to B10, for which the “IC50, HUVEC Survival” value in series [7] came to 0.0432 µg/mL. This molecule yielded a 50% inhibitory concentration (IC50) in series [8] of 0.002 µg/mL.

B11: mvsFlt 300 kDa HCR (multivalent sFlt-hyaluronic acid conjugate, high conjugation ratio) (other, UniProt P17948 27-328, looked up)
chain: T2 chain
modifications: thiolated with 2-iminothiolane and linked through EMCH maleimide to 300 kDa hyaluronic acid
notes: domain: first 3 Ig-like extracellular domains; Protein-polymer conjugate; 30:1 sFlt:HyA feed ratio; final sFlt:HyA 15.4 by SEC-MALS; not shown: tag implied by Ni-NTA purification, not described
As for B11, the “IC50, HUVEC Survival” value in series [7] was 0.0444 µg/mL. The same molecule had an IC50 in series [8] of 0.0047 µg/mL.

B12: mvsFlt 1 MDa HCR (multivalent sFlt-hyaluronic acid conjugate, high conjugation ratio) (other, UniProt P17948 27-328, looked up)
chain: T2 chain
modifications: thiolated with 2-iminothiolane and linked through EMCH maleimide to 1 MDa hyaluronic acid
notes: domain: first 3 Ig-like extracellular domains; Protein-polymer conjugate; 30:1 sFlt:HyA feed ratio; final sFlt:HyA 14.1 by SEC-MALS; not shown: tag implied by Ni-NTA purification, not described
In the case of B12, the “IC50, HUVEC Survival” value in series [7] stood at 0.0454 µg/mL. Moreover, in series [8], the half-maximal inhibitory concentration (IC50) came to 0.0033 µg/mL.

B13: mvsFlt 1 MDa LCR (multivalent sFlt-hyaluronic acid conjugate, low conjugation ratio) (other, UniProt P17948 27-328, looked up)
chain: T2 chain
modifications: thiolated with 2-iminothiolane and linked through EMCH maleimide to 1 MDa hyaluronic acid
notes: domain: first 3 Ig-like extracellular domains; Protein-polymer conjugate; 10:1 sFlt:HyA feed ratio; final sFlt:HyA 5.2 by SEC-MALS; not shown: tag implied by Ni-NTA purification, not described
In the case of B13, in series [7], the “IC50, HUVEC Survival” value came to 0.0449 µg/mL. The molecule further returned an IC50 in series [8] of 0.0022 µg/mL.

Values taken from US20240148882A1 (University of California, published 2024).
